Literature values as cited in article PMC5855594, “Poly-N-Acetyllactosamine Neo-Glycoproteins as Nanomolar Ligands of Human Galectin-3: Binding Kinetics and Modeling” (International Journal of Molecular Sciences, 2018).

Experiments:
[1] = target: BSA neo-glycoprotein 16 (Bos taurus); experiment: competitive ELISA
[2] = target: BSA neo-glycoprotein 13 (Bos taurus) (UniProt P02769); experiment: competitive ELISA
[3] = target: BSA neo-glycoprotein 15 (Bos taurus) (UniProt P02769); experiment: competitive ELISA
[4] = target: BSA neo-glycoprotein 14 (Bos taurus) (UniProt P02769); experiment: competitive ELISA
[5] = target: Asialofetuin (Bos taurus) (UniProt P12763); experiment: ITC
[6] = target: BSA neo-glycoprotein 16 (Bos taurus); experiment: ELISA
[7] = target: BSA neo-glycoprotein 12 (Bos taurus) (UniProt P02769); experiment: ELISA
[8] = target: BSA neo-glycoprotein 13 (Bos taurus) (UniProt P02769); experiment: ELISA
[9] = target: BSA neo-glycoprotein 11 (Bos taurus) (UniProt P02769); experiment: ELISA
[10] = target: BSA neo-glycoprotein 15 (Bos taurus) (UniProt P02769); experiment: ELISA
[11] = target: BSA neo-glycoprotein 14 (Bos taurus) (UniProt P02769); experiment: ELISA

Galectin-3, sequence (P17931 2-250): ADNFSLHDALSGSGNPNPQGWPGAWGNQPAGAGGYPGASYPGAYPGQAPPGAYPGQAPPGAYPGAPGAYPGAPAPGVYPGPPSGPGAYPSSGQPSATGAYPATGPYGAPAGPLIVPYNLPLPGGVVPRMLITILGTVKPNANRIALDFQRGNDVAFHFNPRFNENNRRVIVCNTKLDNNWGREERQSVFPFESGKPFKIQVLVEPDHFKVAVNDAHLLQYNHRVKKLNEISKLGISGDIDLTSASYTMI
BSA neo-glycoprotein 15 (Bos taurus), sequence (P02769 25-607): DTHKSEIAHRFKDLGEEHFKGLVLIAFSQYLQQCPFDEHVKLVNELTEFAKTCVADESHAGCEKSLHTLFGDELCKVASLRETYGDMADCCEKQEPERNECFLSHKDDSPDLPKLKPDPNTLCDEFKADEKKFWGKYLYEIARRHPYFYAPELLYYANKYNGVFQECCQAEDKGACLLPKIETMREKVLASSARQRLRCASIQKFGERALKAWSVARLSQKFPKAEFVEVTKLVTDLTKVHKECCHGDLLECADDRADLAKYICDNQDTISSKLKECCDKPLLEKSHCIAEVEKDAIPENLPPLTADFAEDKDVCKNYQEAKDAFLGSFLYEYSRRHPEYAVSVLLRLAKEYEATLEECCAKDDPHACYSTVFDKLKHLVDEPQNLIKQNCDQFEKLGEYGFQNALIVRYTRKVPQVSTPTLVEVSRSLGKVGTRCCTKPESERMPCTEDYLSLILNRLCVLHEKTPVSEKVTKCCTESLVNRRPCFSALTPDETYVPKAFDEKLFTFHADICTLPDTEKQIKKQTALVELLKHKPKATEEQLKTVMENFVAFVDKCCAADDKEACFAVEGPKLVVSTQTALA
BSA neo-glycoprotein 14 (Bos taurus), sequence (P02769 25-607): as above
BSA neo-glycoprotein 16 (Bos taurus), sequence (P02769 25-607): as above
BSA neo-glycoprotein 13 (Bos taurus), sequence (P02769 25-607): as above
BSA neo-glycoprotein 12 (Bos taurus), sequence (P02769 25-607): as above
BSA neo-glycoprotein 11 (Bos taurus), sequence (P02769 25-607): as above
Asialofetuin (Bos taurus), sequence (P12763 19-359): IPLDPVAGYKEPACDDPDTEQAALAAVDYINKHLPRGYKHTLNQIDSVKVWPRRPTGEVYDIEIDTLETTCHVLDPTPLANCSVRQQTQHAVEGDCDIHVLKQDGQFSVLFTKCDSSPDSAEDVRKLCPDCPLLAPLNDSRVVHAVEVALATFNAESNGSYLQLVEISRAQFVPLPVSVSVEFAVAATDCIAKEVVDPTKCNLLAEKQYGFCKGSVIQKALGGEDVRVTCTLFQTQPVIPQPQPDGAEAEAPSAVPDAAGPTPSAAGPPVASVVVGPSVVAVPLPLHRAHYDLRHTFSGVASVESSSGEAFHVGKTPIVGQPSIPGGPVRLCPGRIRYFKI

For Galectin-3 (from UniProt P17931), the IC50 [1] is listed as 65 nM, the IC50 [2] is listed as 37 nM and the IC50 [3] is listed as 212 nM. For the same substance, the IC50 [4] was 76 nM, the Kd [5] was 7.14 nM and the Kd [6] was 290 nM. For the same substance, the Kd [7] was 300 nM, the Kd [8] was 76 nM and the Kd [9] was 30 nM. For the same substance, the Kd [10] was 700 nM and the Kd [11] was 350 nM.
